This note sets out measurements from patent US11708423B2, “Chimeric engulfment receptor molecules and methods of use” (CERO THERAPEUTICS, INC., priority 2017, dated 2023).

In assay [1] the test system is HCC159 lung adenocarcinoma cells. Briefly: MTT viability of HCC159 cells co-cultured with CER T cells and Osimeritinib. Particulars: for growth/viability of HCC159 cells (MTT): Osimeritinib 0.1, 1, 5 nM, E:T 1:1, 2:1, 5:1, 48 hours. It is filed as cell-based. On the procedure: HCC159 lung adenocarcinoma cells harboring an EGFR mutation were co-cultured with CER123- or CER126-expressing CD4+ T cells with increasing concentrations of Osimeritinib (0.1 nM, 1 nM, or 5 nM). Mock transduced (vector only) T cells were used as control. After 48 hours of co-culture at effector: target cell ratios at 1:1, 2:1 or 5:1 in the presence of drug, T cells were washed away, and the number of viable HCC159 cells was quantified using a calorimetric MTT assay. Cell viability experiments were performed in triplicates and presented as % of control with (FIG. 48A).

In assay [2] the test system is A549 cells introduced with an ELM4-ALK translocation. Briefly: Interferon Gamma secretion, A549 ALK+ co-culture. It is filed as cell-based. Particulars: Crizotinib (3700 nM) or Alectinib (3700 nM), 18 hours, E:T 2:1 and 5:1. On the procedure:
After 18 hours of co-culture, bulk supernatants were evaluated for Interferon Gamma secretion (FIGS. 66A-B). Assays were performed using purified, tEGFR^+ (transduction marker), CER-expressing T cells 7 days after activation using CD3 & CD28 microbeads at effector: target ratios of (2:1 & 5:1). Control “Mock” T cells were transduced with vector alone.

For assay [3], the system named is HCC827 lung adenocarcinoma cells. Briefly: MTT viability and bright field microscopy of HCC827 cells with CER T cells and Osimeritinib. It counts as cell-based. Particulars: Osimeritinib 1 nM, 48 hours, CD4+ T cells. From the text:
CD4+ T cells were transduced with lentiviral vectors encoding various CERs (CER21, CER108, CER104, CER129, CER27, CER120, CER122, CER123, CER124, or CER126). Mock transduced (vector only) CD4+ T cells were used as control. CER21 comprises a Tim4 binding domain, Tim4 transmembrane domain, and an engulfment signaling domain comprising a primary engulfment signaling domain comprising a TLR8 signaling domain. CER21 has a polypeptide sequence as set forth in SEQ ID NO:88. CER108 has a polypeptide sequence as set forth in SEQ ID NO:137 and comprises a Tim4 binding domain, Tim4 transmembrane domain, and an engulfment signaling domain comprising a primary engulfment signaling domain comprising a DAP12 signaling domain and a secondary engulfment signaling domain comprising a TLR8 signaling domain. CER104 has a polypeptide sequence as set forth in SEQ ID NO:133 and comprises a Tim4 binding domain, Tim4 transmembrane domain, and an engulfment signaling domain comprising a primary engulfment signaling domain comprising a TLR8 signaling domain and a secondary engulfment signaling domain comprising a DAP12 signaling domain. CER129 has a polypeptide sequence as set forth in SEQ ID NO:177 and comprises a Tim4 binding domain, Tim4 transmembrane domain, and an engulfment signaling domain comprising a primary engulfment signaling domain comprising a TLR8 signaling domain and a secondary engulfment signaling domain comprising a TRAF2 signaling domain. CER27 comprises a Tim4 binding domain, Tim4 transmembrane domain, and an engulfment signaling domain comprising a primary engulfment signaling domain comprising a TLR2 signaling domain. CER27 has a polypeptide sequence as set forth in SEQ ID NO:93. […] T cells were washed away, and the number of viable HCC827 cells was quantified using a calorimetric MTT assay. […]

Another assay has as its system SCC152 cells. Briefly: Magnitude breadth of phagocytosis by CER-transduced CD4+ T cells. It is filed as cell-based, human. On the procedure: Various CER-modified CD4+ T cells were also evaluated for breadth of response to determine whether a particular CER confers a broad phagocytic response of low magnitude (e.g., 10% engulfment in 90% of cells) or a less frequent but strong phagocytic response (e.g., 90% engulfment in 10% of cells) in the host cells. CD8+ T cells were transduced with HPV16 E7 specific TCR as described in Example 5. CD4+ T cells were transduced with lentiviral vectors comprising a CER21, CER27, CER104, CER116, or CER117 nucleic acid. Mock-transduced (vector alone) CD4+ T cell were used as control. CD4+/CER+ and CD8+/E7 TCR+ T cells were stained with CELLTRACE violet. […] HPV16 E7 TCR transduced CD8+ T cells and selected CER transduced CD4+ T cells were mixed at a 1:1 ratio and co-cultured with SCC152 cells at a 1:1 ratio for 8 hours. Phagocytosis of target SCC152 cells by CER-transduced CD4+ T cells was analyzed by fluorescence microscopy. […] The horizontal axis represents the % area of CER-transduced CD4+ T cells having engulfment or % area of […]. This measure was rarely above 40% across CER types tested. The vertical axis represents the proportion of CER-transduced CD4+ T cells that were phagocytic. For CER104, about 20% of CER104-transduced CD4+ T cells have more than 10% engulfment. For CER117-transduced CD4+ T cells, less than 10% have more than 10% engulfment.

“Also recorded” adds a separate entry of the source.

B1: CER123: Tim4 binding and transmembrane domains, TLR2 primary and TRAF6 secondary signaling domains; SEQ ID NO:150 (protein)
chain: MSKGLLLLWLVTELWWLYLTPAASEDTIIGFLGQPVTLPCHYLSWSQSRNSMCWGKGSCPNSKCNAELLRTDGTRIISRKSTKYTLLGKVQFGEVSLTISNTNRGDSGVYCCRIEVPGWFNDVKKNVRLELRRATTTKKPTTTTRPTTTPYVTTTTPELLPTTVMTTSVLPTTTPPQTLATTAFSTAVTTCPSTTPGSFSQETTKGSAFTTESETLPASNHSQRSMMTISTDIAVLRPTGSNPGILPSTSQLTTQKTTLTTSESLQKTTKSHQINSRQTILIIACCVGFVLMVLLFLAFLHRFHGLWYMKMMWAWLQAKRKPRKAPSRNICYDAFVSYSERDAYWVENLMVQELENFNPPFKLCLHKRDFIPGKWIIDNIIDSIEKSHKTVFVLSENFVKSEWCKYELDFSHFRLFDENNDAAILILLEPIEKKAIPQRFCKLRKIMNTKTYLEWPMDEAQREGFWVNLRAAIKSMSLLNCENSCGSSQSESDCCVAMASSCSAVTKDDSVGGTASTGNLSSSFMEEIQGYDVEFDPPLESKYECPICLMALREAVQTPCGHRFCKACIIKSIRDAGHKCPVDNEILLENQLFPDNFAKREILSLMVKCPNEGCLHKMELRHLEDHQAHCEFALMDCPQCQRPFQKFHINIHILKDCPRRQVSCDNCAASMAFEDKEIHDQNCPLANVICEYCNTILIREQMPNHYDLDCPTAPIPCTFSTFGCHEKMQRNHLARHLQENTQSHMRMLA
modifications: CER123 protein
With B1, the “bright field images of HCC159 co-culture” value in assay [1] (1 nM Osimeritinib, vs control T cells) is on record as “loss of HCC159 cells”. Besides, the “growth/viability of HCC159 cells (MTT)” value in assay [1] is given as “dose-dependent target cell killing responses; also recorded: synergistically suppressed”. Moreover, the “Interferon Gamma secretion” value in assay [2] is recorded as “dose-dependent inducible cytokine secretion”.

B2: CER104: Tim4 binding and transmembrane domains, TLR8 primary and DAP12 secondary signaling domains; SEQ ID NO:133 (protein)
chain: MSKGLLLLWLVTELWWLYLTPAASEDTIIGFLGQPVTLPCHYLSWSQSRNSMCWGKGSCPNSKCNAELLRTDGTRIISRKSTKYTLLGKVQFGEVSLTISNTNRGDSGVYCCRIEVPGWFNDVKKNVRLELRRATTTKKPTTTTRPTTTPYVTTTTPELLPTTVMTTSVLPTTTPPQTLATTAFSTAVTTCPSTTPGSFSQETTKGSAFTTESETLPASNHSQRSMMTISTDIAVLRPTGSNPGILPSTSQLTTQKTTLTTSESLQKTTKSHQINSRQTILIIACCVGFVLMVLLFLAFLHHLFYWDVWFIYNVCLAKVKGYRSLSTSQTFYDAYISYDTKDASVTDWVINELRYHLEESRDKNVLLCLEERDWDPGLAIIDNLMQSINQSKKTVFVLTKKYAKSWNFKTAFYLALQRLMDENMDVIIFILLEPVLQHSQYLRLRQRICKSSILQWPDNPKAEGLFWQTLRNVVLTENDSRYNNMYVDSIKQYYFLGRLVPRGRGAAEAATRKQRITETESPYQELQGQRSDVYSDLNTQRPYYK
modifications: CER104 protein
Consider B2, for which the “bright field microscopy of HCC827 co-culture” value in assay [3] was “cluster of dead HCC827 EGFR^+ cells surrounded by phagocytic CER104^+ T cells”. For the same molecule, the “proportion of CER-transduced CD4+ T cells that have more than 10% engulfment” value with SCC152 cells (8 hours co-culture with CD8/E7 TCR T cells and SCC152 cells) is reported as “about 20%”.

B3: CER126: Tim4 binding and transmembrane domains, TLR2 primary and TRAF2 secondary signaling domains; SEQ ID NO:174 (protein)
chain: MSKGLLLLWLVTELWWLYLTPAASEDTIIGFLGQPVTLPCHYLSWSQSRNSMCWGKGSCPNSKCNAELLRTDGTRIISRKSTKYTLLGKVQFGEVSLTISNTNRGDSGVYCCRIEVPGWFNDVKKNVRLELRRATTTKKPTTTTRPTTTPYVTTTTPELLPTTVMTTSVLPTTTPPQTLATTAFSTAVTTCPSTTPGSFSQETTKGSAFTTESETLPASNHSQRSMMTISTDIAVLRPTGSNPGILPSTSQLTTQKTTLTTSESLQKTTKSHQINSRQTILIIACCVGFVLMVLLFLAFLHRFHGLWYMKMMWAWLQAKRKPRKAPSRNICYDAFVSYSERDAYWVENLMVQELENFNPPFKLCLHKRDFIPGKWIIDNIIDSIEKSHKTVFVLSENFVKSEWCKYELDFSHFRLFDENNDAAILILLEPIEKKAIPQRFCKLRKIMNTKTYLEWPMDEAQREGFWVNLRAAIKSMAAASVTPPGSLELLQPGFSKTLLGTKLEAKYLCSACRNVLRRPFQAQCGHRYCSFCLASILSSGPQNCAACVHEGIYEEGISILESSSAFPDNAARREVESLPAVCPSDGCTWKGTLKEYESCHEGRCPLMLTECPACKGLVRLGEKERHLEHECPERSLSCRHCRAPCCGADVKAHHEVCPKFPLTCDGCGKKKIPREKFQDHVKTCGKCRVPCRFHAIGCLETVEGEKQQEHEVQWLREHLAMLLSSVLEAKPLLGDQSHAGSELLQRCESLEKKTATFENIVCVLNREVERVAMTAEAC
modifications: CER126 protein
In the case of B3, in assay [1], the “growth/viability of HCC159 cells (MTT)” value is reported as “dose-dependent target cell killing responses; also recorded: synergistically suppressed”. Moreover, the “Interferon Gamma secretion” value in assay [2] is reported as “dose-dependent inducible cytokine secretion”. The “engulfment of SCC152 target cells (fluorescent micrograph)” value in the assay on SCC152 cells (CD4+ T cells) is on record as “SCC152 target cells engulfed”.
